Target: T1, integrin-linked kinase (ILK) ankyrin repeat domain (ARD) (UniProt Q13418 1-171)
T1 sequence: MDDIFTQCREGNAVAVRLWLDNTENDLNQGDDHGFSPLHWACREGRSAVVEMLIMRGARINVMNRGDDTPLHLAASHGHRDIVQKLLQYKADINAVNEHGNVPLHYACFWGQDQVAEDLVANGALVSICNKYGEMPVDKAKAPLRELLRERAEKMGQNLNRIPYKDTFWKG
Assay: ITC

Kd: ~68 nM
B1: PINCH LIM1 domain (domain or fragment)
chain: MANALASATCERCKGGFAPAEKIVNSNGELYHEQCFVCAQCFQQFPEGLFYEFEGRKYCEHDFQMLFAPC

— PMC2873192 (Journal of the American Chemical Society, 2009)
